Experimental findings from PMC2175198 are described below.

This assay addresses ribosomes (membrane-bound, carrying nascent chains) (S. cerevisiae (endogenous in yeast microsomes)). As to the kind of experiment: co-sedimentation.

“Sec61p of the sec61-3 mutant (from UniProt P32915 1-480) (natural protein)” gave a percent of Sec61p bound to ribosomes (25°C; sec61-3 strain) of 30%.

B1: Sec61p (natural protein)
chain: MSSNRVLDLFKPFESFLPEVIAPERKVPYNQKLIWTGVSLLIFLILGQIPLYGIVSSETSDPLYWLRAMLASNRGTLLELGVSPIITSSMIFQFLQGTQLLQIRPESKQDRELFQIAQKVCAIILILGQALVVVMTGNYGAPSDLGLPICLLLIFQLMFASLIVMLLDELLSKGYGLGSGISLFTATNIAEQIFWRAFAPTTVNSGRGKEFEGAVIAFFHLLAVRKDKKRALVEAFYRTNLPNMFQVLMTVAIFLFVLYLQGFRYELPIRSTKVRGQIGIYPIKLFYTSNTPIMLQSALTSNIFLISQILFQKYPTNPLIRLIGVWGIRPGTQGPQMALSGLAYYIQPLMSLSEALLDPIKTIVYITFVLGSCAVFSKTWIEISGTSPRDIAKQFKDQGMVINGKRETSIYRELKKIIPTAAAFGGATIGALSVGSDLLGTLGSGASILMATTTIYGYYEAAAKEGGFTKNLVPGFSDLM
Turning to B1, the percent of Sec61p bound to ribosomes (25°C; wild-type and srp101-47 strains) was determined as 30%; the percent of Sec61p bound to ribosomes (srp101-47 strain, 3 h at 37°C) worked out at 20%.
